These results are taken from article PMC11065875.

For the data set, the system named is H-24 (His-ELP) (synthetic; E. coli BL21 expressed). The experiment in a line: coacervate partitioning, fluorimetry. Particulars: EMSA in 2.5% agarose, 30 min incubation, 0.5 uM ssDNA1, fusions in 1x PBS (or 50% artificial fluids) at RT, His-ELPs at RT in 37 mM citric acid/126 mM Na2HPO4 …; for binding signal (% in coacervate): 60 C (LLPS 1).

As to “GGGTTCCTTGCTAGCCAGAGAGCTCCCGGGCTCGACCTGGTCTAACAAGAGAGACC [ATTO488-ssDNA1]”, the binding signal (% in coacervate) by setting is: (pH 6.5, artificial nasal swab fluid) 80; (pH 6.5, artificial saliva) 70; (pH 6.5, buffer) 60. For the same sequence, the binding signal (% in protein-poor supernatant) (pH 8, 300 mM NaCl, 30 C (LLPS 2)) was > 90.
